Test results as given in patent US20190314526A1.

Columns and labels:
[1] = target: AAV-2 capsid mutant W365A (rAAV-2 virion) (AAV-2) (UniProt P03135); assay: cell-based or functional assay
[2] = target: AAV-2 capsid mutant N360H/S361A (rAAV-2 virion) (AAV-2) (UniProt P03135); assay: cell-based or functional assay
[3] = target: AAV-2 capsid mutant E411A/T413A/G449A/N450A/N568A/V571A (rAAV-2 virion) (AAV-2) (UniProt P03135); assay: cell-based or functional assay
[4] = target: AAV-2 capsid mutant S130A (rAAV-2 virion) (AAV-2) (UniProt P03135); assay: cell-based or functional assay
[5] = target: AAV-2 capsid mutant K395A (rAAV-2 virion) (AAV-2) (UniProt P03135); assay: cell-based or functional assay
[6] = target: AAV-2 capsid mutant D357E (rAAV-2 virion) (AAV-2) (UniProt P03135); assay: cell-based or functional assay
[7] = target: AAV-2 with a wild-type capsid (rAAV-2 virion) (AAV-2) (UniProt P03135); assay: cell-based or functional assay
[8] = target: AAV-2 capsid mutant S127A (rAAV-2 virion) (AAV-2) (UniProt P03135); assay: cell-based or functional assay
[9] = target: AAV-2 capsid mutant K569A (rAAV-2 virion) (AAV-2) (UniProt P03135); assay: cell-based or functional assay
[10] = target: AAV-2 capsid mutant E411A/T413A/G449A/N450A (rAAV-2 virion) (AAV-2) (UniProt P03135); assay: cell-based or functional assay
[11] = target: AAV-2 capsid mutant G375P (rAAV-2 virion) (AAV-2) (UniProt P03135); assay: cell-based or functional assay
[12] = target: AAV-2 capsid mutant R334A/N568A (rAAV-2 virion) (AAV-2) (UniProt P03135); assay: cell-based or functional assay
[13] = target: AAV-2 capsid mutant T354A (rAAV-2 virion) (AAV-2) (UniProt P03135); assay: cell-based or functional assay
[14] = target: AAV-2 capsid mutant Q452A (rAAV-2 virion) (AAV-2) (UniProt P03135); assay: cell-based or functional assay
[15] = target: AAV-2 capsid mutant E394A (rAAV-2 virion) (AAV-2) (UniProt P03135); assay: cell-based or functional assay
[16] = target: AAV-2 capsid mutant N133A (rAAV-2 virion) (AAV-2) (UniProt P03135); assay: cell-based or functional assay
[17] = target: AAV-2 capsid mutant E394K (rAAV-2 virion) (AAV-2) (UniProt P03135); assay: cell-based or functional assay
[18] = target: AAV-2 capsid mutant G449A (rAAV-2 virion) (AAV-2) (UniProt P03135); assay: cell-based or functional assay
[19] = target: AAV-2 capsid mutant F396A (rAAV-2 virion) (AAV-2) (UniProt P03135); assay: cell-based or functional assay
[20] = target: AAV-2 capsid mutant V571A (rAAV-2 virion) (AAV-2) (UniProt P03135); assay: cell-based or functional assay
[21] = target: AAV-2 capsid mutant D132N (rAAV-2 virion) (AAV-2) (UniProt P03135); assay: cell-based or functional assay
[22] = target: AAV-2 capsid mutant D357N (rAAV-2 virion) (AAV-2) (UniProt P03135); assay: cell-based or functional assay
[23] = target: AAV-2 capsid mutant N450A (rAAV-2 virion) (AAV-2) (UniProt P03135); assay: cell-based or functional assay
[24] = target: AAV-2 capsid mutant G128A (rAAV-2 virion) (AAV-2) (UniProt P03135); assay: cell-based or functional assay
[25] = target: AAV-2 capsid mutant E437A (rAAV-2 virion) (AAV-2) (UniProt P03135); assay: cell-based or functional assay
[26] = target: AAV-2 capsid mutant V571K (rAAV-2 virion) (AAV-2) (UniProt P03135); assay: cell-based or functional assay
[27] = target: AAV-2 capsid mutant R334A (rAAV-2 virion) (AAV-2) (UniProt P03135); assay: cell-based or functional assay
[28] = target: AAV-2 capsid mutant R334A/G449A/N568A (rAAV-2 virion) (AAV-2) (UniProt P03135); assay: cell-based or functional assay
[29] = target: AAV-2 capsid mutant G449A/N568A (rAAV-2 virion) (AAV-2) (UniProt P03135); assay: cell-based or functional assay
[30] = target: AAV-2 capsid mutant E418A (rAAV-2 virion) (AAV-2) (UniProt P03135); assay: cell-based or functional assay
[31] = target: AAV-2 capsid mutant R334A/G449A (rAAV-2 virion) (AAV-2) (UniProt P03135); assay: cell-based or functional assay
[32] = target: AAV-2 capsid mutant K390A (rAAV-2 virion) (AAV-2) (UniProt P03135); assay: cell-based or functional assay
[33] = target: AAV-2 capsid mutant R448K (rAAV-2 virion) (AAV-2) (UniProt P03135); assay: cell-based or functional assay
[34] = target: AAV-2 capsid mutant H134Q (rAAV-2 virion) (AAV-2) (UniProt P03135); assay: cell-based or functional assay
[35] = target: AAV-2 capsid mutant K407A (rAAV-2 virion) (AAV-2) (UniProt P03135); assay: cell-based or functional assay
[36] = target: AAV-2 capsid mutant T413K (rAAV-2 virion) (AAV-2) (UniProt P03135); assay: cell-based or functional assay
[37] = target: AAV-2 capsid mutant S130T (rAAV-2 virion) (AAV-2) (UniProt P03135); assay: cell-based or functional assay
[38] = target: AAV-2 capsid mutant D377A (rAAV-2 virion) (AAV-2) (UniProt P03135); assay: cell-based or functional assay
[39] = target: AAV-2 capsid mutant N568A (rAAV-2 virion) (AAV-2) (UniProt P03135); assay: cell-based or functional assay
[40] = target: AAV-2 with a wild-type capsid (rAAV-2 virion) (AAV-2) (UniProt P03135); assay: all-human IgG ELISA, virus needed for half maximal OD, against wild type

purified human IgG from >10,000 donors (Panglobulin, ZLB Bioplasma AG)
Fold decrease in neutralizing titer [1]: 10.4 fold
Fold decrease in neutralizing titer [2]: 2.1 fold
Fold decrease in neutralizing titer [3]: 1.3 fold
Fold decrease in neutralizing titer [4]: 1.4 fold
Fold decrease in neutralizing titer [5]: 4.9 fold
Fold decrease in neutralizing titer [6]: 1.7 fold
Fold decrease in neutralizing titer [7]: 1 fold
Fold decrease in neutralizing titer [8]: 2.2 fold
Fold decrease in neutralizing titer [9]: 4 fold
Fold decrease in neutralizing titer [10]: 1 fold
Fold decrease in neutralizing titer [11]: 1.9 fold
Fold decrease in neutralizing titer [12]: 2.4 fold
Fold decrease in neutralizing titer [13]: 2.9 fold
Fold decrease in neutralizing titer [14]: 1.3 fold
Fold decrease in neutralizing titer [15]: 1.5 fold
Fold decrease in neutralizing titer [16]: 0.9 fold
Fold decrease in neutralizing titer [17]: 2.3 fold
Fold decrease in neutralizing titer [18]: 2.5 fold
Fold decrease in neutralizing titer [19]: 1.6 fold
Fold decrease in neutralizing titer [20]: 3.9 fold
Fold decrease in neutralizing titer [21]: 3.8 fold
Fold decrease in neutralizing titer [22]: 1.8 fold
Fold decrease in neutralizing titer [23]: 1.6 fold
Fold decrease in neutralizing titer [24]: 4.1 fold
Fold decrease in neutralizing titer [25]: 2 fold
Fold decrease in neutralizing titer [26]: 1 fold
Fold decrease in neutralizing titer [27]: 2.2 fold
Fold decrease in neutralizing titer [28]: 3 fold
Fold decrease in neutralizing titer [29]: 1.7 fold
Fold decrease in neutralizing titer [30]: 1.5 fold
Fold decrease in neutralizing titer [31]: 3.9 fold
Fold decrease in neutralizing titer [32]: 2.3 fold
Fold decrease in neutralizing titer [33]: 1 fold
Fold decrease in neutralizing titer [34]: 1.5 fold
Fold decrease in neutralizing titer [35]: 3.3 fold
Fold decrease in neutralizing titer [36]: 2.6 fold
Fold decrease in neutralizing titer [37]: 1.8 fold
Fold decrease in neutralizing titer [38]: 1.9 fold
Fold decrease in neutralizing titer [39]: 2 fold
Fold decrease in binding of human IgG [40]: 1 fold
